Two molecules from PMC6100724, “Proteome‐wide analysis of phospho‐regulated PDZ domain interactions” (Molecular Systems Biology, 2018) can be followed below.

The subject of one assay is GST‐tagged Scribble PDZ1. The assay can be described thus: GST-pulldown from HEK293 lysates with GST-tagged Scribble PDZ1. In kind it is binding, human. The following applies: Flag‐tagged full-length protein over-expressed in HEK293 cells; anti‐Flag detection. From the text: (§1) pDONR223‐RPS6KA2 (Johannessen et al, 2010) was a gift from William Hahn & David Root (Addgene plasmid # 23530). The gene was PCR‐amplified introducing HindIII and EcoRI restriction sites along with the C‐terminal phosphomimetic (S730E) or phosphoinhibiting (S730A) mutations, or the PDZbm deletion (T731‐L733). pKH3‐human RSK1 was a gift from John Blenis (Addgene plasmid # 13841; Richards et al, 2001). The gene was PCR‐amplified introducing HindIII and EcoRI restriction sites, and a and PDZbm deletion (T733‐L735) was generated. The genes (wild type and mutants) were cloned into 3xFlag CMV‐10 vector and subjected to Sanger sequencing. […]
(§2) The plasmids encoding 3xFlag RPS6KA2 wild type and mutants thereof, 3xFlag RPS6KA1 and mutants thereof, and GFP‐tagged full‐length human Scribble (Navarro et al, 2005) were Midipreped using PureLink HiPure Plasmid Midiprep Kit (Invitrogen). […] The membranes were immunoblotted with anti‐Flag (ab1162; Abcam), anti‐GFP (ab6556; Abcam), and anti‐actin (ab1801; Abcam) primary antibodies followed by HRP‐conjugated anti rabbit secondary antibody (Life technologies) and detected with Amersham ECL Western Blotting Detection Reagent (GE Healthcare), and exposed to high‐performance chemiluminescence film (Amersham Hyperfilm ECL; GE Healthcare) for 30–180 s and developed and fixed using GBX developer and fixer (Carestream Dental).

The test system of assay [1] is GFP‐tagged full‐length Scribble. The assay can be described thus: Co-immunoprecipitation in HEK293 cells. It counts as binding, human. The following applies: transient expression in HEK293 cells; anti‐Flag beads; anti‐Flag and anti‐GFP detection.
Text: as §1, §2

B1: Flag‐tagged RPS6KA1: Flag‐tagged full-length wild-type RPS6KA1 expressed in HEK293 cells (protein, UniProt Q15418 1-735, looked up)
chain: MPLAQLKEPWPLMELVPLDPENGQTSGEEAGLQPSKDEGVLKEISITHHVKAGSEKADPSHFELLKVLGQGSFGKVFLVRKVTRPDSGHLYAMKVLKKATLKVRDRVRTKMERDILADVNHPFVVKLHYAFQTEGKLYLILDFLRGGDLFTRLSKEVMFTEEDVKFYLAELALGLDHLHSLGIIYRDLKPENILLDEEGHIKLTDFGLSKEAIDHEKKAYSFCGTVEYMAPEVVNRQGHSHSADWWSYGVLMFEMLTGSLPFQGKDRKETMTLILKAKLGMPQFLSTEAQSLLRALFKRNPANRLGSGPDGAEEIKRHVFYSTIDWNKLYRREIKPPFKPAVAQPDDTFYFDTEFTSRTPKDSPGIPPSAGAHQLFRGFSFVATGLMEDDGKPRAPQAPLHSVVQQLHGKNLVFSDGYVVKETIGVGSYSECKRCVHKATNMEYAVKVIDKSKRDPSEEIEILLRYGQHPNIITLKDVYDDGKHVYLVTELMRGGELLDKILRQKFFSEREASFVLHTIGKTVEYLHSQGVVHRDLKPSNILYVDESGNPECLRICDFGFAKQLRAENGLLMTPCYTANFVAPEVLKRQGYDEGCDIWSLGILLYTMLAGYTPFANGPSDTPEEILTRIGSGKFTLSGGNWNTVSETAKDLVSKMLHVDPHQRLTAKQVLQHPWVTQKDKLPQSQLSHQDLQLVKGAMAATYSALNSSKPTPQLKPIESSILAQRRVRKLPSTTL
modifications: full-length Flag tag
notes: Flag‐tagged full-length wild-type RPS6KA1 expressed in HEK293 cells
In the case of B1, the “GST‐pulldown with GST‐tagged Scribble PDZ1” value in the assay on GST‐tagged Scribble PDZ1 is given as “interaction was further confirmed”.

B2: RPS6KA2 S730E: Flag‐tagged full-length RPS6KA2 phosphomimetic mutant expressed in HEK293 cells (protein)
chain: MDLSMKKFAVRRFFSVYLRRKSRSKSSSLSRLEEEGVVKEIDISHHVKEGFEKADPSQFELLKVLGQGSYGKVFLVRKVKGSDAGQLYAMKVLKKATLKVRDRVRSKMERDILAEVNHPFIVKLHYAFQTEGKLYLILDFLRGGDLFTRLSKEVMFTEEDVKFYLAELALALDHLHSLGIIYRDLKPENILLDEEGHIKITDFGLSKEAIDHDKRAYSFCGTIEYMAPEVVNRRGHTQSADWWSFGVLMFEMLTGSLPFQGKDRKETMALILKAKLGMPQFLSGEAQSLLRALFKRNPCNRLGAGIDGVEEIKRHPFFVTIDWNTLYRKEIKPPFKPAVGRPEDTFHFDPEFTARTPTDSPGVPPSANAHHLFRGFSFVASSLIQEPSQQDLHKVPVHPIVQQLHGNNIHFTDGYEIKEDIGVGSYSVCKRCVHKATDTEYAVKIIDKSKRDPSEEIEILLRYGQHPNIITLKDVYDDGKFVYLVMELMRGGELLDRILRQRYFSEREASDVLCTITKTMDYLHSQGVVHRDLKPSNILYRDESGSPESIRVCDFGFAKQLRAGNGLLMTPCYTANFVAPEVLKRQGYDAACDIWSLGILLYTMLAGFTPFANGPDDTPEEILARIGSGKYALSGGNWDSISDAAKDVVSKMLHVDPHQRLTAMQVLKHPWVVNREYLSPNQLSRQDVHLVKGAMAATYFALNRTPQAPRLEPVLSSNLAQRRGMKRLTETRL
modifications: left off: 3xFlag, end not stated, kept
notes: Flag‐tagged full-length RPS6KA2 phosphomimetic mutant expressed in HEK293 cells
In the case of B2, the “co‐IP with GFP‐tagged full‐length Scribble” value in assay [1] is listed as “strong co‐IP”. The “GST‐pulldown with GST‐tagged Scribble PDZ1” value in the assay on GST‐tagged Scribble PDZ1 was “confirmed an interaction”.
